Experimental data published in article PMC4882601, “Binding of Human Fibrinogen to MRP Enhances Streptococcus suis Survival in Host Blood in a αXβ2 Integrin-dependent Manner” (Scientific Reports, 2016).

T1: human fibrinogen (human, UniProt P02671-2 20-644; P02675 31-491; P02679-2 27-437, biotin on hFg (which chain is not told) in the ELISA with immobilised MRP)
T1 construct: Fibrinogen Aα chain, human (63.5 kDa band); Fibrinogen Bβ chain, human (56 kDa band); Fibrinogen γ chain, human (47 kDa band); Three pairs of Aα, Bβ and γ chains; also called hFg; Fg; source: bought: Merck; copies: 2 + 2 + 2
T1 sequence (looked up) 1: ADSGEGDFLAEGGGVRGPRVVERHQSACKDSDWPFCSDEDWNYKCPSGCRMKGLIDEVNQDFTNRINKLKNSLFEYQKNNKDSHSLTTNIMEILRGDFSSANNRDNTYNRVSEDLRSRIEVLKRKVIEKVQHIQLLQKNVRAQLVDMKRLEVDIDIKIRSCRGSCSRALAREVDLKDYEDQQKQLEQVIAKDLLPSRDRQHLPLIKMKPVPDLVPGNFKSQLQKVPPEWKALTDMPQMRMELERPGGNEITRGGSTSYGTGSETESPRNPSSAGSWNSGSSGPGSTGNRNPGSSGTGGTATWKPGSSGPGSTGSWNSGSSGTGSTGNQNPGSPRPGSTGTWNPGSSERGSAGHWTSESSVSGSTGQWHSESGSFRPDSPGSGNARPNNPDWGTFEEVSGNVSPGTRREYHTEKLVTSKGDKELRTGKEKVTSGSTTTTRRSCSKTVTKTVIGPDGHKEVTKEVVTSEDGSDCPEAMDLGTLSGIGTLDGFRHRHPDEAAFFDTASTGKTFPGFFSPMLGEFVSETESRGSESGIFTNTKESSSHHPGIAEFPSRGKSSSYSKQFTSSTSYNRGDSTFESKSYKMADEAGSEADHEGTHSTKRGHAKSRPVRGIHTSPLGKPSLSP
T1 sequence (looked up) 2: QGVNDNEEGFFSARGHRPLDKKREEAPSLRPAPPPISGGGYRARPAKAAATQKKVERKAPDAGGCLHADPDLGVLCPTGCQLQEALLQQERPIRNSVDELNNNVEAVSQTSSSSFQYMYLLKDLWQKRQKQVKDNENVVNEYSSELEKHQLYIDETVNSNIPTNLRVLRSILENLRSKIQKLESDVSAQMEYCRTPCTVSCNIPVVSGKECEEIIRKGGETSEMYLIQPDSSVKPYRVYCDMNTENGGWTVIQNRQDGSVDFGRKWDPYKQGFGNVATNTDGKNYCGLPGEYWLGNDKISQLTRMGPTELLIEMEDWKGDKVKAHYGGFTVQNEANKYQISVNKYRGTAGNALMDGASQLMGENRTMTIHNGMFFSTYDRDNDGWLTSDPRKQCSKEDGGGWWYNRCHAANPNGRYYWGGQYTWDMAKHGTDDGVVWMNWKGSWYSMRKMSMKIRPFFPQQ
T1 sequence (looked up) 3: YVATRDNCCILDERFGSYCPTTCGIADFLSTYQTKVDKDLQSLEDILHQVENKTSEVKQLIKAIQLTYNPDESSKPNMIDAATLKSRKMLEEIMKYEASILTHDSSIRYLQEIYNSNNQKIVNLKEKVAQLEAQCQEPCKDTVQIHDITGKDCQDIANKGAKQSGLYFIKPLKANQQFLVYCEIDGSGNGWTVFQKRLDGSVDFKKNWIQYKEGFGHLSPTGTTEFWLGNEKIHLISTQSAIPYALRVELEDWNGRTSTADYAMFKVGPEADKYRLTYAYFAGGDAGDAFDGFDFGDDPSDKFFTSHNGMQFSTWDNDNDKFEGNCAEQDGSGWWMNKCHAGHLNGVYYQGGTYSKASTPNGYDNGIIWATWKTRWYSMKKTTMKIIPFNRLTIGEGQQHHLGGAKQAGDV

T2: hisMRP-N (a.a. 48-721, the N-terminus of muramidase-released protein) (Streptococcus suis serotype 2 strain …, UniProt P32653 48-721, biotin (in the far-Western and on the BLI biosensors))
T2 chain: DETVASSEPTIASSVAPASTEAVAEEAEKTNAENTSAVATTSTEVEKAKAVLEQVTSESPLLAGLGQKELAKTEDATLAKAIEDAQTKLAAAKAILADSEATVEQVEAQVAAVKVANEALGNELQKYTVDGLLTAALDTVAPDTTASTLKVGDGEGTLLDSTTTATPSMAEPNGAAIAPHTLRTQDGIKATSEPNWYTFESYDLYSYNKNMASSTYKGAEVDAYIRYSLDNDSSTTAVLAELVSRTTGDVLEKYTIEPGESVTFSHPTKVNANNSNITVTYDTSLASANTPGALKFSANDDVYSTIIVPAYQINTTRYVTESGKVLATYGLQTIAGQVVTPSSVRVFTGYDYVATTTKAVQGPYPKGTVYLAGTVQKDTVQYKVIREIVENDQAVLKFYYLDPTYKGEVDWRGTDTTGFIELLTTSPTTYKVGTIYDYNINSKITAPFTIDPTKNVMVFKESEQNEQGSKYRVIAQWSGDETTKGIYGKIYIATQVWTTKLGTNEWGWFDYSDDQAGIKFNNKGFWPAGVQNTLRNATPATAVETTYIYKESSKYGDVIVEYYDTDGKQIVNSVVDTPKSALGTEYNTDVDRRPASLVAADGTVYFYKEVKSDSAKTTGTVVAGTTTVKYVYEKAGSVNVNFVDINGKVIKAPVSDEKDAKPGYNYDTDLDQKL

B1: hisMRP-N (a.a. 48-721, the N-terminus of muramidase-released protein) (domain or fragment)
chain: DETVASSEPTIASSVAPASTEAVAEEAEKTNAENTSAVATTSTEVEKAKAVLEQVTSESPLLAGLGQKELAKTEDATLAKAIEDAQTKLAAAKAILADSEATVEQVEAQVAAVKVANEALGNELQKYTVDGLLTAALDTVAPDTTASTLKVGDGEGTLLDSTTTATPSMAEPNGAAIAPHTLRTQDGIKATSEPNWYTFESYDLYSYNKNMASSTYKGAEVDAYIRYSLDNDSSTTAVLAELVSRTTGDVLEKYTIEPGESVTFSHPTKVNANNSNITVTYDTSLASANTPGALKFSANDDVYSTIIVPAYQINTTRYVTESGKVLATYGLQTIAGQVVTPSSVRVFTGYDYVATTTKAVQGPYPKGTVYLAGTVQKDTVQYKVIREIVENDQAVLKFYYLDPTYKGEVDWRGTDTTGFIELLTTSPTTYKVGTIYDYNINSKITAPFTIDPTKNVMVFKESEQNEQGSKYRVIAQWSGDETTKGIYGKIYIATQVWTTKLGTNEWGWFDYSDDQAGIKFNNKGFWPAGVQNTLRNATPATAVETTYIYKESSKYGDVIVEYYDTDGKQIVNSVVDTPKSALGTEYNTDVDRRPASLVAADGTVYFYKEVKSDSAKTTGTVVAGTTTVKYVYEKAGSVNVNFVDINGKVIKAPVSDEKDAKPGYNYDTDLDQKL
modifications: biotin (in the far-Western and on the BLI biosensors)
notes: Muramidase-released protein (MRP) of Streptococcus suis serotype 2 strain 05ZYH33, gene SSU05_0753, residues 48-721; also called hisMRP-N_(48-721); source: cloned into pET-28a, expressed, purified by Ni-chelating chromatography
B2: human fibrinogen (complex)
chain 1: ADSGEGDFLAEGGGVRGPRVVERHQSACKDSDWPFCSDEDWNYKCPSGCRMKGLIDEVNQDFTNRINKLKNSLFEYQKNNKDSHSLTTNIMEILRGDFSSANNRDNTYNRVSEDLRSRIEVLKRKVIEKVQHIQLLQKNVRAQLVDMKRLEVDIDIKIRSCRGSCSRALAREVDLKDYEDQQKQLEQVIAKDLLPSRDRQHLPLIKMKPVPDLVPGNFKSQLQKVPPEWKALTDMPQMRMELERPGGNEITRGGSTSYGTGSETESPRNPSSAGSWNSGSSGPGSTGNRNPGSSGTGGTATWKPGSSGPGSTGSWNSGSSGTGSTGNQNPGSPRPGSTGTWNPGSSERGSAGHWTSESSVSGSTGQWHSESGSFRPDSPGSGNARPNNPDWGTFEEVSGNVSPGTRREYHTEKLVTSKGDKELRTGKEKVTSGSTTTTRRSCSKTVTKTVIGPDGHKEVTKEVVTSEDGSDCPEAMDLGTLSGIGTLDGFRHRHPDEAAFFDTASTGKTFPGFFSPMLGEFVSETESRGSESGIFTNTKESSSHHPGIAEFPSRGKSSSYSKQFTSSTSYNRGDSTFESKSYKMADEAGSEADHEGTHSTKRGHAKSRPVRGIHTSPLGKPSLSP
chain 2: QGVNDNEEGFFSARGHRPLDKKREEAPSLRPAPPPISGGGYRARPAKAAATQKKVERKAPDAGGCLHADPDLGVLCPTGCQLQEALLQQERPIRNSVDELNNNVEAVSQTSSSSFQYMYLLKDLWQKRQKQVKDNENVVNEYSSELEKHQLYIDETVNSNIPTNLRVLRSILENLRSKIQKLESDVSAQMEYCRTPCTVSCNIPVVSGKECEEIIRKGGETSEMYLIQPDSSVKPYRVYCDMNTENGGWTVIQNRQDGSVDFGRKWDPYKQGFGNVATNTDGKNYCGLPGEYWLGNDKISQLTRMGPTELLIEMEDWKGDKVKAHYGGFTVQNEANKYQISVNKYRGTAGNALMDGASQLMGENRTMTIHNGMFFSTYDRDNDGWLTSDPRKQCSKEDGGGWWYNRCHAANPNGRYYWGGQYTWDMAKHGTDDGVVWMNWKGSWYSMRKMSMKIRPFFPQQ
chain 3: YVATRDNCCILDERFGSYCPTTCGIADFLSTYQTKVDKDLQSLEDILHQVENKTSEVKQLIKAIQLTYNPDESSKPNMIDAATLKSRKMLEEIMKYEASILTHDSSIRYLQEIYNSNNQKIVNLKEKVAQLEAQCQEPCKDTVQIHDITGKDCQDIANKGAKQSGLYFIKPLKANQQFLVYCEIDGSGNGWTVFQKRLDGSVDFKKNWIQYKEGFGHLSPTGTTEFWLGNEKIHLISTQSAIPYALRVELEDWNGRTSTADYAMFKVGPEADKYRLTYAYFAGGDAGDAFDGFDFGDDPSDKFFTSHNGMQFSTWDNDNDKFEGNCAEQDGSGWWMNKCHAGHLNGVYYQGGTYSKASTPNGYDNGIIWATWKTRWYSMKKTTMKIIPFNRLTIGEGQQHHLGGAKQAGDV
modifications: biotin on hFg (which chain is not told) in the ELISA with immobilised MRP

Columns and labels:
human fibrinogen = biological target: T1, human fibrinogen; assay: BLI; biotinylated MRP-N proteins immobilised on streptavidin biosensors, hFg, Fg-D or Fg-E as analyte, PBST, 1:1 binding model; conditions: both partners purified
[1] = biological target: T2, hisMRP-N (a.a. 48-721, the N-terminus …); assay: BLI

| Binder | Kd (human fibrinogen) [nM] | koff [1] [s⁻¹] |
| --- | --- | --- |
| B1 | 340 | – |
| B2 | – | 0.0989 |
